Source: US11906519B2, “Methods for identifying LILRB-blocking antibodies” (THE BOARD OF REGENTS OF THE UNIVERSITY OF TEXAS SYSTEM, priority 2016, dated 2024)

What was measured:
Assay type in all cases: cell-based, human
[1] = system: T cells co-cultured with THP-1 cells; assay: Tumor cell/T cell co-culture assay; details: T cells with irradiated THP-1 cells, protein supplemented
Protocol: Tumor cell/T cell co-culture assay. Human T cells isolated from health donor peripheral blood (PB009-1-0, Allcells) were co-cultured with irradiated (28 Gy) THP-1 cells in a U-bottom 96 well-plate for 3-7 days. Anti-CD3/CD28-coated beads (#11161D, Thermo Fisher), 50 U/ml recombinant human IL-2, and 5 ng/ml recombinant human IL-7 were supplemented to the medium. In some experiments, THP-1 cells were cultured in the upper chamber of transwell inserts (pore size is 3 μM, #09-761-80, Thermo Fisher) for the U-bottom 96 well-plate. For primary AML or B-ALL samples, patient CD3^+ T cells were collected and patient leukemia cells were sorted as CD33^+ and CD19^+ for AML and B-ALL, respectively.
CD8^+ T cells (5×10^4 per well) isolated from hPBMCs of a healthy donor (Interstate Blood Bank) were stimulated with anti-CD3/CD28/CD137-coated beads (11163D, Thermo Fisher) or cultured without stimulation for 2 days in a 96-well plate. Then, 5×10^3 human leukemia THP-1-Luc-GFP cells and 50 to 500 μg/ml anti-LILRB4 antibody C84 or control antibody mIgG were added. Cell numbers were determined on day 7 in triplicate wells. Anti-CD8 and anti-CD28 were used to detect human CTL cells; THP-1 cells were positive for GFP. […]

[2] = system: THP-1 cells; assay: Transwell trans-endothelial migration of THP-1 cells; details: lilrb4-KO THP-1, recombinant protein supplemented
[3] = system: MV4-11 cells; assay: Transwell trans-endothelial migration of MV4-11 cells; details: lilrb4-KO MV4-11, recombinant protein supplemented
Protocol: Transwell assay. To test the cell plasticity, 1×10^5 MV4-11 cells were labelled with CFSE (Invitrogen) and treated with 100 μg/ml of anti-LILRB4 antibody C84 or control antibody mIgG and cultured in the upper chamber of well in a transwell plate (Corning). After 18 h, cells in lower chamber were counted. To test the ability of AML cells to migrate through endothelial cells, 3×10^5 human umbilical vein endothelial cells (HUVEC) cells were cultured on the transwell membrane. After 3 days, 1×10^5 CFSE-labelled MV4-11 cells were seeded in the upper chamber with 100 μg/ml of C84 or mIgG. After 18 h, cells in lower chamber were counted.

B1: arginase-1: recombinant Arginase-1 protein supplemented to culture (protein, UniProt P05089 1-322, looked up)
Arginase-1: MSAKSRTIGIIGAPFSKGQPRGGVEEGPTVLRKAGLLEKLKEQECDVKDYGDLPFADIPNDSPFQIVKNPRSVGKASEQLAGKVAEVKKNGRISLVLGGDHSLAIGSISGHARVHPDLGVIWVDAHTDINTPLTTTSGNLHGQPVSFLLKELKGKIPDVPGFSWVTPCISAKDIVYIGLRDVDPGEHYILKTLGIKYFSMTEVDRLGIGKVMEETLSYLLGRKKRPIHLSFDVDGLDPSFTPATGTPVVGGLTYREGLYITEEIYKTGLLSGLDIMEVNPSLGKTPEEVTRTVNTAVAITLACFGLAREGNHKPIDYLNPPK
- T cell proliferation in coculture [1]: decreased
- Migration ability of THP-1 cells across endothelial cells [2]: increased
- Migration ability of MV4-11 cells across endothelial cells [3]: increased
